± gives the standard deviation of the averaged measurements.
System: ATP
Experiment: switch fluorescence ratio, 500 uM ATP over buffer (Cy3 cluster intensity, sum of 5 cycles each) (fold (ratio)); higher = stronger signal-on switching upon ATP binding; sequences stand for … in TCGTCGGCAGCGTCAGATGTGTATAAGAGACAGTTTTTTTTTTTTTTTTTTTTTTTTT…TC
Details: aptamer strand: ATP DNA aptamer (quencher-CACCTGGGGGAGTATTGCGGAGGAAGG + anchor), 100 nM annealed; ATP concentration: 500 uM
Outline: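 Five buffer/ATP imaging cycles were run on Cy3-labelled switching-strand clusters on a modified Illumina MiSeq flow-cell, with NaOH stripping and re-annealing between cycles. In each cycle, clusters annealed to 100 nM quencher-labelled ATP aptamer were imaged in selection buffer, then after 15 min with 500 uM ATP at 22 °C. Per cluster, the fluorescence ratio is summed target-cycle over summed buffer-cycle Cy3 intensity, averaged per switch-domain sequence. Only clusters within 100-1000 RFU were kept.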
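Further: ATP exposure 15 min at 22 °C before imaging.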

TTTATCCTTT
switch fluorescence ratio: 0.98 ± 0.025

TTTATCGGGA
switch fluorescence ratio: 0.978 ± 0.017

TTTATCGTTG
switch fluorescence ratio: 0.998 ± 0.025

TTTATCTGAT
switch fluorescence ratio: 0.965 ± 0.025

TTTATGAGCT
switch fluorescence ratio: 1.03 ± 0.014

TTTATGAGGA
switch fluorescence ratio: 1.02 ± 0.021

TTTATGATGC
switch fluorescence ratio: 1.011 ± 0.0092

TTTATGCACT
switch fluorescence ratio: 1.05 ± 0.051

TTTATGCAGC
switch fluorescence ratio: 1.12 ± 0.16

TTTATGCTGT
switch fluorescence ratio: 0.976 ± 0.02

TTTATGGAGG
switch fluorescence ratio: 0.991 ± 0.02

TTTATGGCTA
switch fluorescence ratio: 1.03 ± 0.011

TTTATGGGAT
switch fluorescence ratio: 0.986 ± 0.032

TTTATGGGCG
switch fluorescence ratio: 1.34 ± 0.64

TTTATGTCCA
switch fluorescence ratio: 0.9923 ± 0.0021

TTTATGTCCG
switch fluorescence ratio: 1.04 ± 0.042

TTTATGTCGC
switch fluorescence ratio: 1.01 ± 0.054

TTTATGTCGT
switch fluorescence ratio: 0.986 ± 0.038

TTTATTACGC
switch fluorescence ratio: 0.999 ± 0.053

TTTATTAGTA
switch fluorescence ratio: 0.983 ± 0.024

TTTATTCAGG
switch fluorescence ratio: 1.02 ± 0.032

TTTATTCCGT
switch fluorescence ratio: 0.999 ± 0.037

TTTATTGACG
switch fluorescence ratio: 0.886 ± 0.012

TTTATTGATG
switch fluorescence ratio: 0.997 ± 0.016

TTTATTGGTT
switch fluorescence ratio: 1.07 ± 0.1

TTTATTTGGA
switch fluorescence ratio: 1.018 ± 0.0012

TTTATTTTCG
switch fluorescence ratio: 1.02 ± 0.037

TTTATTTTCT
switch fluorescence ratio: 0.991 ± 0.015

TTTCAAAGGG
switch fluorescence ratio: 0.994 ± 0.015

TTTCAAATCA
switch fluorescence ratio: 1.01 ± 0.037

TTTCAAGAGT
switch fluorescence ratio: 1.03 ± 0.034

TTTCAAGCAT
switch fluorescence ratio: 1.02 ± 0.017

TTTCAAGGGT
switch fluorescence ratio: 0.9851 ± 0.0031

TTTCAATCAT
switch fluorescence ratio: 0.983 ± 0.038

TTTCAATTTT
switch fluorescence ratio: 0.996 ± 0.026

TTTCACACGT
switch fluorescence ratio: 1.02 ± 0.024

TTTCACAGCT
switch fluorescence ratio: 1.03 ± 0.041

TTTCAGGACT
switch fluorescence ratio: 0.996 ± 0.041

TTTCAGGGAA
switch fluorescence ratio: 0.99 ± 0.054

TTTCAGGGAG
switch fluorescence ratio: 1.04 ± 0.056

TTTCAGGTGG
switch fluorescence ratio: 1.02 ± 0.015

TTTCAGTATG
switch fluorescence ratio: 1.02 ± 0.023

TTTCAGTTCT
switch fluorescence ratio: 0.9773 ± 0.005

TTTCATCCCC
switch fluorescence ratio: 1.07 ± 0.034

TTTCCACAGG
switch fluorescence ratio: 1.396 ± 0.0082

TTTCCAGTTC
switch fluorescence ratio: 1.37 ± 0.57

TTTCCCAAAA
switch fluorescence ratio: 1.04 ± 0.08

TTTCCCAATT
switch fluorescence ratio: 1.16 ± 0.16

TTTCCCGCTC
switch fluorescence ratio: 1.93 ± 0.33

TTTCCGATTT
switch fluorescence ratio: 0.9886 ± 0.0024

TTTCCGGATT
switch fluorescence ratio: 1.02 ± 0.059

TTTCCGTTAT
switch fluorescence ratio: 2.41 ± 1.9

TTTCCGTTGA
switch fluorescence ratio: 1.23 ± 0.32

TTTCCGTTTG
switch fluorescence ratio: 1.16 ± 0.32

TTTCCTCTGG
switch fluorescence ratio: 1.95 ± 1.4

TTTCCTGGGG
switch fluorescence ratio: 1.04 ± 0.039

TTTCCTGTAT
switch fluorescence ratio: 0.972 ± 0.046

TTTCCTTTGG
switch fluorescence ratio: 1.01 ± 0.032

TTTCGAAAGG
switch fluorescence ratio: 0.983 ± 0.043

TTTCGAAGGG
switch fluorescence ratio: 1.04 ± 0.07

TTTCGAGAAG
switch fluorescence ratio: 1.05 ± 0.054

TTTCGAGGAC
switch fluorescence ratio: 0.983 ± 0.011

TTTCGATGTT
switch fluorescence ratio: 0.95 ± 0.051

TTTCGATTTT
switch fluorescence ratio: 0.993 ± 0.04

TTTCGCCATT
switch fluorescence ratio: 1.3 ± 0.46

TTTCGGAATT
switch fluorescence ratio: 1.35 ± 0.48

TTTCGGCTTT
switch fluorescence ratio: 1.24 ± 0.3

TTTCGGGACT
switch fluorescence ratio: 1.03 ± 0.048

TTTCGGGGCA
switch fluorescence ratio: 1.02 ± 0.034

TTTCGGGGTG
switch fluorescence ratio: 1.09 ± 0.17

TTTCGGGTAT
switch fluorescence ratio: 1.05 ± 0.011

TTTCGGGTTG
switch fluorescence ratio: 1.02 ± 0.042

TTTCGGGTTT
switch fluorescence ratio: 0.989 ± 0.028

TTTCGGTAAA
switch fluorescence ratio: 1.026 ± 0.0039

TTTCGGTGTT
switch fluorescence ratio: 0.981 ± 0.041

TTTCGGTTCT
switch fluorescence ratio: 0.991 ± 0.012

From the supplement of paper PMC10126150
